Measured values from patent US20040115738A1 (INNATE PHARMA, published 2004).

Assays:
FcεRIγ = biological target: T1, FcεRIγ (UniProt P30273 19-86); assay: co-immunoprecipitation (data not shown)
T1 construct: Endogenous protein in NK cell lysates; also called FcεFRIγ (as misprinted)
T1 sequence (looked up): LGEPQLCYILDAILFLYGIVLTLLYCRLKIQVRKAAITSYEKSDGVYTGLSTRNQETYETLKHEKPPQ

DAP12 = biological target: T2, DAP12 (UniProt O43914 22-113); assay: co-immunoprecipitation (data not shown)
T2 construct: Endogenous protein in NK cell lysates
T2 sequence (O43914 22-113 limits assumed): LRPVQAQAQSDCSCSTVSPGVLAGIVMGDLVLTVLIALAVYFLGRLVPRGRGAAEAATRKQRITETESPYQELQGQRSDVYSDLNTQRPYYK

B1: NKp80 (receptor)
chain: MQDEERYMTLNVQSKKRSSAQTSCLTFKDYSVTLHWYKILLGISGTVNGILTLTLISLILLVSCGVLLKCQKGSCSNATQYEDTGDLKVNNGTRRNISNKDLCASRSADQTVLCQSEWLKYQGKCYWFSNEMKSWSDSYVYCLERKSHLLIIHDQLEMAFIQKNLRQLNYVWIGLNFTSLKMTWTWVDGSPIDSKIFFIKGPAKENSCAAIKESKIFSETCSSVFKWICQY
notes: 231 aa type II transmembrane protein; On the NK cell surface it is a dimer (80 kD non-reduced, about 40 kD reduced); Tested on human NK cells, in lysates of 125I-labeled NK cells, and on 293T cells transfected with VR1012-ML; also called MA152-reactive molecule; MA152 mAb-reactive molecule
Question: Does B1 bind (FcεRIγ)?
Answer: no binding

Question: Does B1 bind (DAP12)?
Answer: no binding
